From US20060058505A1, “Nucleic acid and polypeptide linked to breast cancer and uses therefor” (priority 2001, published 2006) come the findings set out here.

B1: δ-2a-N146: GST fusion of truncated G3BP-2a peptide including the N-terminal amino acids 1 to 146 (NTF2-like domain) (protein, UniProt Q9UN86 1-146, looked up, fragment)
chain: MVMEKPSPLLVGREFVRQYYTLLNKAPEYLHRFYGRNSSYVHGGVDASGKPQEAVYGQNDIHHKVLSLNFSECHTKIRHVDAHATLSDGVVVQVMGLLSNSGQPERKFMQTFVLAPEGSVPNKFYVHNDMFRYEDEVFGDSEPELD
modifications: isoform 2a GST fusion
B2: full length G3BP-2a: full length G3BP-2a expressed as GST-fusion protein (protein)
chain: MVMEKPSPLLVGREFVRQYYTLLNKAPEYLHRFYGRNSSYVHGGVDASGKPQEAVYGQNDIHHKVLSLNFSECHTKIRHVDAHATLSDGVVVQVMGLLSNSGQPERKFMQTFVLAPEGSVPNKFYVHNDMFRYEDEVFGDSEPELDEESEDEVEEEQEERQPSPEPVQENANSGYYEAHPVTNGIEEPLEESSHEPEPEPESETKTEELKPQVEEKNLEELEEKSTTPPPAEPVSLPQEPPKAFSWASVTSKNLPPSGTVSSSGIPSHVKAPVSQPRVEAKPEVQSQPPRVREQRPRERPGFPPRGPRPGRGDMEQNDSDNRRIIRYPDSHQLFVGNLPHDIDENELKEFFMSFGNVVELRINTKGVGGKLPNFGFVVFDDSEPVQRILIAKPIMFRGEVRLNVEEKKTRAARERETRGGGDDRRDIRRNDRGPGGPRGIVGGGMMRDRDGRGPPPRGGMAQKLGSGRGTGQMEGRFTGQRR
modifications: left off: a dimerising Fc or GST
notes: full length G3BP-2a expressed as GST-fusion protein
B3: δ-2a-N329: GST fusion of truncated G3BP-2a peptide; number is the amino acid at the truncation site (protein, UniProt Q9UN86 1-329, looked up, fragment)
chain: MVMEKPSPLLVGREFVRQYYTLLNKAPEYLHRFYGRNSSYVHGGVDASGKPQEAVYGQNDIHHKVLSLNFSECHTKIRHVDAHATLSDGVVVQVMGLLSNSGQPERKFMQTFVLAPEGSVPNKFYVHNDMFRYEDEVFGDSEPELDEESEDEVEEEQEERQPSPEPVQENANSGYYEAHPVTNGIEEPLEESSHEPEPEPESETKTEELKPQVEEKNLEELEEKSTTPPPAEPVSLPQEPPKAFSWASVTSKNLPPSGTVSSSGIPPHVKAPVSQPRVEAKPEVQSQPPRVREQRPRERPGFPPRGPRPGRGDMEQNDSDNRRIIRYPD
modifications: isoform 2a GST fusion
notes: GST fusion of truncated G3BP-2a peptide; number is the amino acid at the truncation site
B4: δ-2a-N205: GST fusion of truncated G3BP-2a peptide; number is the amino acid at the truncation site (protein, UniProt Q9UN86 1-205, looked up, fragment)
chain: MVMEKPSPLLVGREFVRQYYTLLNKAPEYLHRFYGRNSSYVHGGVDASGKPQEAVYGQNDIHHKVLSLNFSECHTKIRHVDAHATLSDGVVVQVMGLLSNSGQPERKFMQTFVLAPEGSVPNKFYVHNDMFRYEDEVFGDSEPELDEESEDEVEEEQEERQPSPEPVQENANSGYYEAHPVTNGIEEPLEESSHEPEPEPESETK
modifications: isoform 2a GST fusion
notes: as for B3
B5: δ-2a-N257: GST fusion of truncated G3BP-2a peptide; number is the amino acid at the truncation site (protein, UniProt Q9UN86 1-257, looked up, fragment)
chain: MVMEKPSPLLVGREFVRQYYTLLNKAPEYLHRFYGRNSSYVHGGVDASGKPQEAVYGQNDIHHKVLSLNFSECHTKIRHVDAHATLSDGVVVQVMGLLSNSGQPERKFMQTFVLAPEGSVPNKFYVHNDMFRYEDEVFGDSEPELDEESEDEVEEEQEERQPSPEPVQENANSGYYEAHPVTNGIEEPLEESSHEPEPEPESETKTEELKPQVEEKNLEELEEKSTTPPPAEPVSLPQEPPKAFSWASVTSKNLPPS
modifications: isoform 2a GST fusion
notes: as for B3

For one assay, the target named is T1, HLA-A*0201 molecule on T2 cells.
T1 construct: whole, on cells
Nature of the assay: T2 binding assay, HLA expression by flow cytometry.
Conditions: not given
(In general: Flow cytometry measures light scatter and fluorescence of single cells or particles in a stream.)
For KLPNFGFVV [Peptide 1 of G3BP-2 (KLPNFGFVV)], the binding result is “binds”.

Turning to IMFRGEVRL [Peptide 2 of G3BP-2 (IMFRGEVRL)], the binding result is on record as “binds”.

For the next assay, the target named is T2, His-tagged N-terminal SH3 domain containing region of rasGAP^120 (Homo sapiens, UniProt P20936).
T2 construct: containing amino acids 1-356 which includes the full SH3 domain of rasGAP^120; made in house; host or cells: E. coli (DH5), IPTG induction; used as bacterial lysate
T2 sequence (P20936 1-356): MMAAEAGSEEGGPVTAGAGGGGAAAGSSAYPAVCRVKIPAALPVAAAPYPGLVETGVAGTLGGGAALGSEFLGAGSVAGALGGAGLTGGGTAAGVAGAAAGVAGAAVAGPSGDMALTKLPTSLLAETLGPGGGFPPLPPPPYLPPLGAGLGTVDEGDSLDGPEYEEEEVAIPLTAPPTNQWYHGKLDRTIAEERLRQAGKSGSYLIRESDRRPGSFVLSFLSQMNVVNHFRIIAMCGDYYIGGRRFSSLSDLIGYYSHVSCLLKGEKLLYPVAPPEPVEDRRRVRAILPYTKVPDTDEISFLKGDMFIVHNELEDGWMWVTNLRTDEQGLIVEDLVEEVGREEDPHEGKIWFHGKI
Nature of the assay: bead binding assay of GST-G3BP peptides with Western detection by anti-His antibody. The settings on record: GST fusions bound to glutathione beads. From the text:
However, the region within the G3BPs responsible for the observed interaction with rasGAP^120 has not been thoroughly investigated. Initially it was presumed that the interactions would be facilitated through proline rich motifs that are known to interact with SH3 domains (Lee et al. 1996). To further map the interactions between G3BPs and the SH3 domain of rasGAP^120 several GST-G3BP peptide fusions were expressed (FIG. 4) and probed in bead binding assays with His-tagged N-terminal rasGAP^120 peptides. The G3BP peptide constructs were designed to represent truncated proteins containing single or multiple domains as well as peptides that would contain isolated proline rich motifs (FIG. 4). In the assays GST-G3BP peptides are bound to glutathione beads and His-tagged N-terminal rasGAP^120 is added to the different constructs. Specific protein-protein interactions between the G3BP peptides and the SH3 domain of rasGAP^120 are detected by running the bound proteins on a Western blot and identifying His-tagged rasGAP^120 by probing with an anti-His antibody. […] No interactions were detected with the other domains of G3BP including the Acid-Rich domain, the RRM or the RGG-rich domain (FIG. 4).
Truncated cDNAs representing either N-terminal or C-Terminal sequences of G3BP-1 and G3BP-2a (FIG. 2) were subcloned into bacterial GST-fusion expression vectors (pGex, Pharmacia) so that the recombinant fusion proteins could be expressed and used in bead binding assays (see below) to identify the sub-domains of G3BP that interact with the SH3 domain of rasGAP^120. The vectors containing the recombinant fusion protein construct were transformed into competent DH5′ E. Coli and expressed by IPTG induction. To collect the recombinant proteins the cells were washed and resuspended in PBS and sonicated to release the fusion proteins.
The N-terminal domain of rasGAP^120 (kindly provided by Prof. I.G. Macara, University of Virginia) containing amino acids 1-356 which includes the full SH3 domain of rasGAP^120 was subcloned into proEX HT bacterial expression vector (Life Technologies) and expressed as described above.
Glutathione columns (Pharmacia) were blocked overnight at 4° C. in 1× binding buffer A (50 mM HEPES pH 7.4, 100 mM NaCl, 5 mM MgCl2, 50 mg/ml BSA, 1 mM DTT, 1 mM PMFS and protease inhibitors (Protease inhibitor cocktail, Roche Diagnostics, Australia). The following day the columns were washed twice with binding buffer A. Bacterial lysates containing either expressed GST alone or GST fusion proteins were diluted 1:1 with 2× binding buffer A and added to the equilibrated GST columns, the columns were gently rocked overnight at 4° C. To remove excess proteins the columns were washed twice in 1× binding buffer A. Bacterial lysates containing the His-tagged N-terminal of rasGAP^120 protein were combined with an equal volume of 2× binding buffer A containing 200 mg/ml BSA and 0.1% Tween. In addition to the high concentration of BSA, which is used to block non-specific protein-protein interactions, Ethidium bromide was added to a final concentration of 25 ng/ml to abrogate non-specific interactions caused by excess bacterial genomic DNA and bacterial RNA. This mix was then added to the pre-bound GST columns (above) and allowed to bind for 2 hrs at 4° C. The columns were then washed three times with binding buffer B (50 mM HEPES pH 7.4, 200 mM NaCl, 5 mM MgCl2, 1 mM DTT, 1 mM PMFS and protease inhibitors).
One μl of the GST beads complexed with proteins, as described above, was added to an equal volume of 2×PAGE loading dye, heated for 5 mins at 95° C. and loaded onto a 7.5% Polyacrylamide gel and run at 100V for 3 hours. The proteins were transferred to Nitrocellulose and probed with anti-His antibodies (Tetra-His antibody, Qiagen). Columns, which were bound with GST alone, were used as negative controls to ensure no non-specific His-tagged N-terminal rasGAP^120 remained associated with the columns. […]
Turning to “δ-1-N309: GST fusion of truncated G3BP-1 peptide; number is the amino acid at the truncation site”, the “interaction with the N-terminal SH3 domain containing region of rasGAP^120” value (shortened to “interaction”) is reported as “interact”.

Regarding “δ-1-N229: GST fusion of truncated G3BP-1 peptide; number is the amino acid at the truncation site”, the “interaction” value is on record as “interact”.

Take “full length G3BP-1: full length G3BP-1 expressed as GST-fusion protein”: the “interaction” value was “interact”.

As to B1, the “interaction” value is “interacted”.

In the case of B2, the “interaction” value is given as “interacted”.

B3: the “interaction” value is “interacted”.

With B4, the “interaction” value is “interacted”.

For B5, the “interaction” value is “interacted”.

In the next assay the test system is peripheral blood mononuclear cells (PBMC) from healthy individuals. Nature of the assay: CTL responses induced by DC in PBMC, tested in IFN-γ ELISPOT. The class given is cell-based. The conditions noted are these: after one (and two) round of stimulation, 2 separate donors. The protocol: The various peptides were evaluated for the generation of CTL responses induced by DC in peripheral blood mononuclear cells (PBMC) from healthy individuals and tested in ELISPOT (Gonzalez et al, 2000). T2 cells (target) pulsed with Peptide 1 or no peptide were labelled with ^51Cr and incubated with clone IH7 (effector) at various ratios. After 4 hours, ^51Cr released from lysed cells was measured and the percentage of specific lysis calculated with the formula: 100×(experimental release−spontaneous release)/(total release−spontaneous release). Total release was obtained with detergent lysis of labelled target.
Confirming this finding, we generated Peptide 1 specific CTL clones capable of identifying peptide-loaded targets in a classical chromium release assay (FIG. 11), the desired profile for an efficient anti-tumor response (Lopez and Hart, 2002), incorporated herein by reference. These clones will be instrumental in the evaluation of the expression of this antigen in cancer cells, allowing the formal evaluation of this molecule as a TAA.
On to KLPNFGFVV (Human) [Peptide 1], for which the “CTL responses: IFN-γ producing peptide specific CD8+ lymphocytes” value is on record as “Strong responses”.

In another assay the target is T3, HLA-A*0201 molecule (Homo sapiens, UniProt P04439, D140Y/D185E/D98H/E176V/E277Q/G131W/G231S/I119V/I121R/I166T/I218V/L300P/L318F/N151K/N90K/P208A/P217A/Q86G/Q94H/R138H/R169H/T345S).
T3 construct: endogenous in cells; host or cells: T2 cells
Nature of the assay: MHC/peptide binding assay (T2 binding assay). The settings on record: reference influenza MP 58-66 peptide.
IMFRGEVRL (human) [Peptide 2]: the “binding to the HLA-A*0201 molecule” value was “affinity equal to that of the control influenza MP 58-66 peptide”.

On to KLPNFGFVV (Human) [Peptide 1], for which the “binding to the HLA-A*0201 molecule” value is “affinity equal to that of the control influenza MP 58-66 peptide”.
